Data on three molecules can be found in paper PMC4980769 (2016).

Experiment [1] deals with AgrA full length (AgrAFL) (Staphylococcus aureus) (UniProt P0A0I7). Briefly: BLI; H2O2. As to conditions: domain or fragment. On the technique in general: BLI is a label-free optical method that tracks binding on a fibre tip over time.
The target is the same in experiment [2]. The experiment can be described thus: BLI. The settings on record: domain or fragment.
For experiment [3] the target is unchanged. The experiment can be described thus: BLI; DTT. As to conditions: domain or fragment.
Experiment [4] has the same target. The experiment can be described thus: BLI; AgrAFL (ligand) immobilised on amine reactive 2nd generation (AR2G) tips; AgrC proteins as analytes at different concentrations; 20 mM HEPES pH 7.6, 200 mM KCl, 2% glycerol; AgrC proteins incubated separately with 5 uM DTT and H2O2; Octet Data Analysis Software v 8.0.
Experiment [5] deals with T1, AgrA full length (AgrAFL) (Staphylococcus aureus, UniProt P0A0I7 1-238).
T1 chain: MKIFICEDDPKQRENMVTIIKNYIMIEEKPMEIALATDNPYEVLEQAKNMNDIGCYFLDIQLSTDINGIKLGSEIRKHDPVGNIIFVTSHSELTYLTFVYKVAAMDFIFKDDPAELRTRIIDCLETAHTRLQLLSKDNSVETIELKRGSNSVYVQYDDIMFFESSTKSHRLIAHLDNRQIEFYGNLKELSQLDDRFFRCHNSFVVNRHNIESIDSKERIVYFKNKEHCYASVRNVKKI
The experiment can be described thus: BLI; H2O2.

Experiment [6] addresses T1, AgrA full length (AgrAFL). Briefly: BLI.
In experiment [7] the target is T1, AgrA full length (AgrAFL). Briefly: BLI; DTT.

For the molecule recombinant AgrC Y223C protein, the Kd – broadly, the equilibrium constant for the complex coming apart – in experiment [1] came to 31.4 nM; in experiment [2], 105 nM; in experiment [3], 44.9 nM.

“recombinant AgrC Y223C protein (domain or fragment)”: the fold reduction in binding affinity against wild-type AgrC in experiment [4] was less than 10 fold.

B1: recombinant wild-type AgrC (cytosolic domain) (domain or fragment)
chain: KEMKYKRNQEEIETYYEYTLKIEAINNEMRKFRHDYVNILTPLSEYIREDDMPGLRDYFNKNIVPMKDNLQMNAIKLNGIENLKVREIKGLITAKILRAQEMNIPISIEIPDEVSSINLNMIDLSRSIGIILDNAIEASTEIDDPIIRVAFIESENSVTFIVMNKCADDIPRIHELFQESFSTKGEGRGLGLSTLKEIADNADNVLLDTIIENGFFIQKVEIINN
On to B1, for which the figures for the Kd in experiment [5], in experiment [6] and in experiment [7] were 4.21 nM, 93.1 nM and 99.8 nM, respectively.
